This passage reports EC50 and Kd results from patent US20240360229A1 (Genentech, published 2024).

Changes are numbered by the printed parent chain. Names may count otherwise.

Assay [1] deals with T1, cyno CCR8 (cynomolgus monkey, UniProt O97665 1-356 (rhesus entry)).
T1 construct: also called cynomolgus CCR8; cyCCR8
Description: flow cytometry titration on CHO cells stably expressing cyno CCR8 (14 h, room temperature). The protocol:
(§1) In particular, human CCR8 CHO and cyno (cynomolgus monkey) CCR8 CHO stable cell lines were stained with a dilution series of anti-CCR8 antibodies at room temperature for 14 hours, then washed twice with FACS buffer (PBS with 0.5% BSA and 0.2 mM EDTA). Samples were washed twice with FACS buffer followed by staining with goat Fab anti-hu IgG H+L (1:300, Jackson Immuno) at 4° C. for 15 minutes.

Assay [2] concerns the target T2, human CCR8 (human, UniProt P51685 1-355).
T2 construct: also CHO-hCCR8-Ga15 / CHO/hCCR8.Gna15); also called hCCR8; huCCR8
Description: flow cytometry titration on CHO cells stably expressing human CCR8 (14 h, room temperature). The protocol:
as §1

The target of assay [3] is T2, human CCR8. Description: LigandTracer real-time fluorescence, Alexa Fluor 488-labelled TDB on CHO cells expressing human CCR8; 1-to-2 fit, monovalent event. On the procedure: (§2) The following day, media was aspirated and fresh media was added. The cells were incubated at room temperature for 20 minutes prior to starting the assay. The plate was loaded onto a LIGAND TRACER® Green instrument (Ridgeview Instruments AB) for real-time fluorescence measurement. […] Antibody (Ab) dissociation was recorded by aspirating the media and adding fresh media with 10 nM of unlabeled Ab to prevent rebinding of labeled Ab. The Ab dissociation was measured overnight to obtain accurate off-rates. Untransfected CHO cells were used to subtract the non-specific binding. Specific binding traces were analyzed using TraceDrawer 1.7 (Ridgeview Instruments) software and fit with a 1-to-2 with bulk binding model to determine association (kₐ) and dissociation (kd) rate constants. The equilibrium dissociation constants (KD) for each binding event were calculated as the ratio of the dissociation and association rates, kd/kₐ.
(§3) 1 million CHO cells stably expressing either human or cynomolgus CCR8 (about 60,000 and about 30,000 receptors/cell, respectively) were seeded at a concentration of 1 million cells/mL onto a Multidish 2×2 Petri Dish (Ridgeview Instruments AB, Sweden) to form a circular drop of about 3 cm diameter in chambers A and C of the dish. […] The plate was loaded onto a […]® Green (Ridgeview Instruments AB) for real-time fluorescence measurement.

Assay [4] concerns the target T1, cyno CCR8. Description: cellular binding with LigandTracer on CHO cells expressing cyno CCR8, three experiments (same values as the bivalent row of Table 8). The protocol: (§4) Untransfected CHO cells were used to subtract the non-specific binding. Specific binding traces were analyzed using TraceDrawer 1.7 (Ridgeview Instruments) software and fit with a 1-to-2 with bulk binding model to determine association (kₐ) and dissociation (kd) rate constants. The equilibrium dissociation constants (KD) for each binding event were calculated as the ratio of the dissociation and association rates, kd/kₐ.
(§5) 1 million CHO cells stably expressing either human or cynomolgus CCR8 (about 60,000 and about 30,000 receptors/cell, respectively) were seeded at a concentration of 1 million cells/mL onto a Multidish 2×2 Petri Dish (Ridgeview Instruments AB, Sweden) to form a circular drop of about 3 cm diameter in chambers A and C of the dish. Untransfected CHO cells were seeded in opposing chambers (B and D) in the same manner. Cells were left undisturbed to adhere for 4 hours. […] The plate was loaded onto a […]® Green (Ridgeview Instruments AB) for real-time fluorescence measurement. […] The Ab dissociation was measured overnight to obtain accurate off-rates. […] Specific binding traces were analyzed using TraceDrawer 1.7 (Ridgeview Instruments) software to determine the association-(kₐ) and dissociation-(kd) rate constants. The equilibrium dissociation constants (KD) for each binding event were calculated as the ratio of the dissociation and association rates, kd/kₐ. […]

For assay [5], the target named is T2, human CCR8. Description: cellular binding with LigandTracer on CHO cells expressing human CCR8, three experiments (same values as the bivalent row of Table 8). The protocol: as §4, §5
The target in assay [6] is T1, cyno CCR8. Description: LigandTracer real-time fluorescence, Alexa Fluor 488-labelled TDB on CHO cells expressing cyno CCR8; 1-to-2 fit, bivalent event. The protocol:
as §2, §3

The target in assay [7] is T1, cyno CCR8. Description: LigandTracer real-time fluorescence, Alexa Fluor 488-labelled TDB on CHO cells expressing cyno CCR8; 1-to-2 fit, monovalent event. The protocol: as §2, §3
Assay [8] addresses T2, human CCR8. Description: LigandTracer real-time fluorescence, Alexa Fluor 488-labelled TDB on CHO cells expressing human CCR8; 1-to-2 fit, bivalent event. On the procedure: as §2, §3
Assay [9] has as its target T3, Human CD3-epsilon/delta dimer (linked by murine Fc) (human; mouse, UniProt P07766 23-126; P04234 22-105).
T3 construct: also called huCD3ed-mIgG2a.Fc; recombinant human CD3epsilon/delta; not shown: mouse IgG2a Fc
Description: SPR (Biacore T200, 37 C), TDB captured by anti-human Fc on CM5, huCD3ed-mIgG2a.Fc injected; 1:1 Langmuir, n=3.

T1 sequence (O97665 other isoform, or with tags, fused parts or gaps): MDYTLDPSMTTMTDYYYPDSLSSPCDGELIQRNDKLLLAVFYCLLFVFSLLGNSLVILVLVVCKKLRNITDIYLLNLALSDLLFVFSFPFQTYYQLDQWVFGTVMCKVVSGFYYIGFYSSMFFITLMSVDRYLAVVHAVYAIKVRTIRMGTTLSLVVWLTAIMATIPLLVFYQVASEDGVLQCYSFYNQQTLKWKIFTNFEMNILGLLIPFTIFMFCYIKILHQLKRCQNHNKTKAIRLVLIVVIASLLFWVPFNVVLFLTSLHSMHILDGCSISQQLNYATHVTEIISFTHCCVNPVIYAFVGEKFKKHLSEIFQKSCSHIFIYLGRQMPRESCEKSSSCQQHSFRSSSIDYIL
T2 sequence (P51685 whole entry): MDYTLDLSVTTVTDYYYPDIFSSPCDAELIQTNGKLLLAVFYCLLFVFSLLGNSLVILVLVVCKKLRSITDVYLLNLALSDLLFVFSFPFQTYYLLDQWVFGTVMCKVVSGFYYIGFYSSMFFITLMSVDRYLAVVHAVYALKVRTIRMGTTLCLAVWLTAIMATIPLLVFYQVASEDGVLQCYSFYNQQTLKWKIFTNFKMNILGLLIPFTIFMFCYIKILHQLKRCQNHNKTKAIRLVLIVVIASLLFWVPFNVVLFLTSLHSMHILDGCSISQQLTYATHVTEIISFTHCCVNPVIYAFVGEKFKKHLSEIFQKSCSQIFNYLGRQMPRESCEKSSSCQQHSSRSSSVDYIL
T3 sequence (P07766 23-126, stated change not applied, chain 1 of 2): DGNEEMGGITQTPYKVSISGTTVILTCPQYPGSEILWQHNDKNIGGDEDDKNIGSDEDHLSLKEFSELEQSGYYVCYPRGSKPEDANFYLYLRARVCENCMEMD
T3 sequence (P04234 22-105, stated change not applied, chain 2 of 2): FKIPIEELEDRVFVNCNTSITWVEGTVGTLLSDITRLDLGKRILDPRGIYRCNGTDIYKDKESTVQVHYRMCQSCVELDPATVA

B1: anti-CCR8 1889 WT antibody (parent) (antibody, V domains shown)
VH: EVQLLESGGGLVQPGGSLRLSCAASGIDLSTYAMGWVREAPGKGLEWVGLIHRSGRTYYATWAKGRFTISKDSSKNTLYLQMNSLRAEDTAVYYCTRSYPDYSATASIWGQGTTVTVSS
VL: DIQVTQSPSSLSASVGDRVTITCQASENIANALAWYQKKPGKPPKFLIYGASNLASGVPSRFSGSGSGTDFTFTISSLQPEDIATYYCQQAYYGNSFVEGTFGGGTKVEIK
notes: The antibody has human IgG constant regions (detected with anti-human IgG)
On to B1, for which the figures for the EC50 with cyno CCR8 [1] and with human CCR8 [2] were 11.5 nM and 17.1 nM, respectively.

B2: anti-CCR8 1889 S12P.I29V (PV) (antibody, V domains shown)
VH: B1 VH
VL: B1 VL with S12P, I29V
For B2, the concentration giving a half-maximal response (EC50) with cyno CCR8 [1] is 7.67 nM; with human CCR8 [2], 1.65 nM.

B3: anti-CCR8 1889 S12P.I29V.E95dS (PVS) (antibody, V domains shown)
VH: B1 VH
VL: B1 VL with S12P, I29V, E99S
B3: the figures for the 50% effective concentration (EC50) in the assay with cyno CCR8 [1] and with human CCR8 [2] were 3.13 nM and 0.66 nM, respectively.

B4: anti-CCR8 1889 S12P.I29V.E95dS.Y58A (PVSA) (antibody, V domains shown)
VH: B1 VH with Y58A
VL: B1 VL with S12P, I29V, E99S
notes: It is put together from the printed names of the heavy and light chain variants
Turning to B4, the EC50 in the assay with cyno CCR8 [1] is 3.39 nM; in the assay with human CCR8 [2], 1.19 nM.

B5: anti-CCR8 1889 S12P.I29V.E95dS.T57D.Y58A (PVSDA) (antibody, V domains shown)
VH: B1 VH with T57D, Y58A
VL: B1 VL with S12P, I29V, E99S
notes: It is put together from the printed names of the heavy and light chain variants; also called I29V.E95dS.Y57D.Y58A
With B5, the 50% effective concentration (EC50) with cyno CCR8 [1] worked out at 2.24 nM; with human CCR8 [2], 0.94 nM.

B6: anti-CCR8 1889 S12P.I29V.Y58A (PVA) (antibody, V domains shown)
VH: B1 VH with Y58A
VL: B1 VL with S12P, I29V
notes: It is put together from the printed names of the heavy chain variant (Y58A) and the light chain variant (S12P.I29V)
For B6, the EC50 is 6.14 nM with cyno CCR8 [1] and 1.03 nM with human CCR8 [2].

B7: 1889/1889:40G5c anti-CCR8 TDB 2+1 A/AB (A: 1889 P, B: 40G5c) (bispecific antibody, human IgG1, kappa, L234A L235A)
heavy 1: EVQLLESGGGLVQPGGSLRLSCAASGIDLSTYAMGWVREAPGKGLEWVGLIHRSGRTYYATWAKGRFTISKDSSKNTLYLQMNSLRAEDTAVYYCTRSYPDYSATASIWGQGTTVTVSSASTKGPSVFPLAPSSKSTSGGTAALGCLVKDYFPEPVTVSWNSGALTSGVHTFPAVLQSSGLYSLKSVVTVPSSSLGTQTYICNVNHKPSNTKVDKKVEPKSCDKTHTCPPCPAPEAAGGPSVFLFPPKPKDTLMISRTPEVTCVVVDVSHEDPEVKFNWYVDGVEVHNAKTKPREEQYNSTYRVVSVLTVLHQDWLNGKEYKCKVSNKALGAPIEKTISKAKGQPREPQVYTLPPSREEMTKNQVSLWCLVKGFYPSDIAVEWESNGQPENNYKTTPPVLDSDGSFFLYSKLTVDKSRWQQGNVFSCSVMHEALHNHYTQKSLSLSPGK
light 1: DIQVTQSPSSLPASVGDRVTITCQASENIANALAWYQKKPGKPPKFLIYGASNLASGVPSRFSGSGSGTDFTFTISSLQPEDIATYYCQQAYYGNSFVEGTFGGGTKVEIKRTVAAPSVFIFPPSDEQLKSGTASVECLLNNFYPREAKVQWKVDNALQSGNSQESVTEQDSKDSTYSLSSTLTLSKADYEKHKVYACEVTHQGLSSPVTKSFNRGEC
heavy 2: EVQLLESGGGLVQPGGSLRLSCAASGIDLSTYAMGWVREAPGKGLEWVGLIHRSGRTYYATWAKGRFTISKDSSKNTLYLQMNSLRAEDTAVYYCTRSYPDYSATASIWGQGTTVTVSSASTKGPSVFPLAPSSKSTSGGTAALGCLVKDYFPEPVTVSWNSGALTSGVHTFPAVLQSSGLYSLKSVVTVPSSSLGTQTYICNVNHKPSNTKVDKKVEPKSCDKTHTEVQLVQSGAEVKKPGASVKVSCKASGYTFTNYYIHWVRKAPGQGLEWIGWIYPGDGNTKYNEKFKGRATLTADTSTSTAYLELSSLRSEDTAVYYCARDSYSNYYFDYWGQGTLVTVSSASTKGPSVFPLAPSSKSTSGGTAALGCLVKDYFPEPVTVSWNSGALTSGVHTFPAVLQSSGLYSLESVVTVPSSSLGTQTYICNVNHKPSNTKVDKKVEPKSCDKTHTCPPCPAPEAAGGPSVFLFPPKPKDTLMISRTPEVTCVVVDVSHEDPEVKFNWYVDGVEVHNAKTKPREEQYNSTYRVVSVLTVLHQDWLNGKEYKCKVSNKALGAPIEKTISKAKGQPREPQVYTLPPSREEMTKNQVSLSCAVKGFYPSDIAVEWESNGQPENNYKTTPPVLDSDGSFFLVSKLTVDKSRWQQGNVFSCSVMHEALHNHYTQKSLSLSPGK
light 2: not shown
notes: 2+1 T cell-dependent bispecific: human IgG1 Fc with LALA-PG, knob-into-hole and charge mutations
For the molecule B7, the Kd in the assay with human CCR8 [3] is 0.484 nM; with cyno CCR8 [4], 0.023 nM; in the assay with human CCR8 [5] it was 0.008 nM; with cyno CCR8 [6] it was 0.0228 nM; with cyno CCR8 [7] it was 1.01 nM; with human CCR8 [8], 0.00778 nM. For the same molecule, the Kd in assay [9] worked out at 1160 nM.
